Measured values published in publication PMC11002309, “Cancer-associated polybromo-1 bromodomain 4 missense variants variably impact bromodomain ligand binding and cell growth suppression” (The Journal of Biological Chemistry, 2024).

Biological target: T1, biotinylated histone H3K14ac(1–20) peptide (acetyl-lysine at K14; biotin on the added C-terminal lysine; C-terminal amide (CONH2))
T1 construct: histone H3, residues 1-20; added C-terminal lysine that carries the biotin; also called H3K14ac peptide; Kac peptide; source: synthetic peptide, bought: Peptide 2.0
Test: AlphaScreen or HTRF; full titration: His6-PBRM1-BD4 protein 0.001–2 μM against 50 nM biotinylated H3K14ac(1–20) peptide; streptavidin donor and nickel-chelate acceptor beads; 1× AlphaLISA Epigenetics buffer, 0.05% Tween 20, 2 μM TCEP; room temperature; n = 3
Settings: both partners purified

Binder | EC50 [nM] | fold reduction of affinity against WT [fold]
PBRM1-BD4 M586I (domain or fragment, human, UniProt Q86U86-5 496-637, looked up, polybromo-1 (PBRM1), fourth bromodomain (BD4) construct, aa 496-637, cancer-associated missense variant; source: E. coli BL21(DE3), purified (Ni-NTA, gel filtration)) GDSMISSATSDTGSAKRKSKKNIRKQRMKILFNVVLEAREPGSGRRLCDLFMVKPSKKDYPDYYKIILEPMDLKIIEHNIRNDKYAGEEGIIEDMKLMFRNARHYNEEGSQVYNDAHILEKLLKEKRKELGPLPDDDDMASP | 490 ± 130 | 
PBRM1-BD4 R576L (domain or fragment, human, UniProt Q86U86-5 496-637, looked up, polybromo-1 (PBRM1), fourth bromodomain (BD4) construct, aa 496-637, cancer-associated missense variant; source: E. coli BL21(DE3), purified (Ni-NTA, gel filtration)) GDSMISSATSDTGSAKRKSKKNIRKQRMKILFNVVLEAREPGSGRRLCDLFMVKPSKKDYPDYYKIILEPMDLKIIEHNILNDKYAGEEGMIEDMKLMFRNARHYNEEGSQVYNDAHILEKLLKEKRKELGPLPDDDDMASP | 210 ± 20 | 2 to 15
PBRM1-BD4 P556S (domain or fragment, human, UniProt Q86U86-5 496-637, looked up, polybromo-1 (PBRM1), fourth bromodomain (BD4) construct, aa 496-637, cancer-associated missense variant; source: E. coli BL21(DE3), purified (Ni-NTA, gel filtration)) GDSMISSATSDTGSAKRKSKKNIRKQRMKILFNVVLEAREPGSGRRLCDLFMVKPSKKDYSDYYKIILEPMDLKIIEHNIRNDKYAGEEGMIEDMKLMFRNARHYNEEGSQVYNDAHILEKLLKEKRKELGPLPDDDDMASP | 1000 ± 90 | 2 to 15
